Data taken from US9789130B2, “Method for blocking HIV entry into dendritic cells by inhibiting sialoadhesin-sialyllactose binding interactions with gangliosides” (LABORATORIOS DEL DR. ESTEVE, S.A., priority 2011, dated 2017).

B1: CD83: human recombinant CD83 protein used to pre-treat mAb 7D2 (protein, UniProt Q01151 20-205, looked up)
CD83 antigen: TPEVKVACSEDVDLPCTAPWDPQVPYTVSWVKLLEGGEERMETPQEDHLRGQHYHQKGQNGSFDAPNERPYSLKIRNTTSCNSGTYRCTLQDPDGQRNLSGKVILRVTGCPAQRKEETFKKYRAEIVLLLALVIFYLTLIIFTCKFARLQSIFPDFSKAGMERAFLPVTSPNKHLGLVTPHKTELV
B2: purified Siglec-7: human recombinant Siglec-7 protein used to pre-treat mAb 7D2 (protein, UniProt Q9Y286 19-467, looked up)
Sialic acid-binding Ig-like …: QKSNRKDYSLTMQSSVTVQEGMCVHVRCSFSYPVDSQTDSDPVHGYWFRAGNDISWKAPVATNNPAWAVQEETRDRFHLLGDPQTKNCTLSIRDARMSDAGRYFFRMEKGNIKWNYKYDQLSVNVTALTHRPNILIPGTLESGCFQNLTCSVPWACEQGTPPMISWMGTSVSPLHPSTTRSSVLTLIPQPQHHGTSLTCQVTLPGAGVTTNRTIQLNVSYPPQNLTVTVFQGEGTASTALGNSSSLSVLEGQSLRLVCAVDSNPPARLSWTWRSLTLYPSQPSNPLVLELQVHLGDEGEFTCRAQNSLGSQHVSLNLSLQQEYTGKMRPVSGVLLGAVGGAGATALVFLSFCVIFIVVRSCRKKSARPAADVGDIGMKDANTIRGSASQGNLTESWADDNPRHHGLAAHSSGEEREIQYAPLSFHKGEPQDLSGQEATNNEYSEIKIPK

Molecular target: T1, Siglec-1 (Homo sapiens, UniProt Q9BZZ2)
T1 construct: Siglec-1 expressed in LPS mDCs capture distinct ganglioside containing vesicles; endogenous in cells; host or cells: LPS-matured monocyte-derived dendritic cells (LPS mDCs) from donor PBMCs
Assay: VLP capture by LPS mDCs pre-incubated with α-Siglec-1 mAbs
Format: cell-based
Conditions: 2 μg/ml mAb 7D2 treated with at least 100-fold molar excess of human recombinant protein
Description: FIG. 11. Siglec-1 expressed in LPS mDCs capture distinct ganglioside containing vesicles, such as HIV-1 viral-like particles, liposomes, and exosomes. Capture of VLPHIV-Gag-eGFP by LPS mDCs that had been pre-incubated with decreasing concentrations of α-Siglec-1 mAb 7D2 before VLP exposure for 30 min at 37° C.
FIG. 12. Capture of VLPHIV-Gag-eGFP by LPS mDCs that had been pre-incubated with or without 2 μg/ml of α-Siglec-1 mAb 7D2 previously treated or not with at least a 100-fold molar excess of the indicated human recombinant proteins. Of note, Siglec-14 shares 100% of amino acid homology with Siglec-5 in the V-set domain.
FIG. 13. Blocking effect of α-Siglec-1 mAb 7-239. (A) Capture of VLPHIV-Gag-eGFP by LPS mDCs that had been pre-incubated with decreasing concentrations of α-Siglec-1 mAb 7-239 before VLP exposure for 30 min at 37° C. […] (B) Capture of VLPHIV-Gag-eGFP by LPS mDCs that had been pre-incubated with 10 μg/ml of the indicated mAbs before VLP exposure for 3 h at 37° C.

T1 sequence (Q9BZZ2 20-1709): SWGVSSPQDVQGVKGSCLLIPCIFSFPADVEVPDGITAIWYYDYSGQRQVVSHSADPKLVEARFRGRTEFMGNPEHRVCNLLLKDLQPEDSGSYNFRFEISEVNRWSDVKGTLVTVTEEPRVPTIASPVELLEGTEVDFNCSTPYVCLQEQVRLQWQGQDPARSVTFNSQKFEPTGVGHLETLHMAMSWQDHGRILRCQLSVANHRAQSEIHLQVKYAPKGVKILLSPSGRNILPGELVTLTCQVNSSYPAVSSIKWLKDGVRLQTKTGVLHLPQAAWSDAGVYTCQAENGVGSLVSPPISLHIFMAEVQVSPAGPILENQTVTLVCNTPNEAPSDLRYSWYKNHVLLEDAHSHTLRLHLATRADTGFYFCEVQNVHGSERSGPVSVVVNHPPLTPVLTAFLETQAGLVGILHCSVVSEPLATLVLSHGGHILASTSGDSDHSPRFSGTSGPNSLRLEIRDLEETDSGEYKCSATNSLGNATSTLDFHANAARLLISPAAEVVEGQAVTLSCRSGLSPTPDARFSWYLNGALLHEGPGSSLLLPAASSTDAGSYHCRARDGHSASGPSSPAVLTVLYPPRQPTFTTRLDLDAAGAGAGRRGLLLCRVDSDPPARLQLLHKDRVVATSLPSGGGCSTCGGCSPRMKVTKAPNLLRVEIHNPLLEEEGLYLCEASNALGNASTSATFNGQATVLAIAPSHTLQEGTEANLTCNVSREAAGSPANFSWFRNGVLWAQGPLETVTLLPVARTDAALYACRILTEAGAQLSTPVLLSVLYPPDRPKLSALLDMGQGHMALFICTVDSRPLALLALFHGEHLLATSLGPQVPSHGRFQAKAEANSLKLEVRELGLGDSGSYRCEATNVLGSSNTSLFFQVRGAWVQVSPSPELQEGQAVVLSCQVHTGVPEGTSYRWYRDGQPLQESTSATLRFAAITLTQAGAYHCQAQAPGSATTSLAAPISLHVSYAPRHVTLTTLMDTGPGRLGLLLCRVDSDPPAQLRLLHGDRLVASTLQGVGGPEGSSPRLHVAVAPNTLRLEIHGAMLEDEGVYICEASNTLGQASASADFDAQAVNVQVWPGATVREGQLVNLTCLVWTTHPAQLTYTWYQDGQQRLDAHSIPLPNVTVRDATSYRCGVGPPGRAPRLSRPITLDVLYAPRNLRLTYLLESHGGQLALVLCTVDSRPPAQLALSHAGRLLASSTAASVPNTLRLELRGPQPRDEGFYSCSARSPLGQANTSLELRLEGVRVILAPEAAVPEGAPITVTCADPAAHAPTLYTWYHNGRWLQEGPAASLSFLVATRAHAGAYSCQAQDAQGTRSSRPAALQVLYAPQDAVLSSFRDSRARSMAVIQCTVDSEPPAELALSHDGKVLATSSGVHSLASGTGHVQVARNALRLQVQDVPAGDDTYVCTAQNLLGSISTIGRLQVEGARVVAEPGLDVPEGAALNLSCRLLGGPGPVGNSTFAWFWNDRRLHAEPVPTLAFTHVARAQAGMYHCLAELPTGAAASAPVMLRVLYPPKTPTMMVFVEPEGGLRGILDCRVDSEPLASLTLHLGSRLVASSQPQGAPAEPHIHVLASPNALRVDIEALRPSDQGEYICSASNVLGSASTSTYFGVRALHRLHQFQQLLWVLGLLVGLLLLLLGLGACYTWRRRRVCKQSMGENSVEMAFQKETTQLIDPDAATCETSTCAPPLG

| Molecule | VLP capture by LPS mDCs with mAb 7D2 pre-incubated with purified protein |
| --- | --- |
| B1 | had no effect |
| B2 | had no effect |
